US20140087995A1 (published 2014)
Numbered stars: 1 amine (or outer) side, 2 acyl side, 3 side chain; on linkers, the order of the positions; unused ones are H or OH. Bridge positions count the residues as written; N and C are the ends. Side chains are listed from the residue outwards. Ends that are not written are not given here. * marks the point of attachment. C20 diacid = O=C(O)CCCCCCCCCCCCCCCCCCC(=O)*; γGlu = O=C(O)[C@H](CCC(=O)[*:2])N[*:1]

T1: human calcitonin receptor (human, UniProt P30988 25-474)
T1 construct: whole, on cells; Membranes of BHK cells stably transfected with the human calcitonin receptor (Assay VII); also called hCTR; hCT
T1 sequence (looked up): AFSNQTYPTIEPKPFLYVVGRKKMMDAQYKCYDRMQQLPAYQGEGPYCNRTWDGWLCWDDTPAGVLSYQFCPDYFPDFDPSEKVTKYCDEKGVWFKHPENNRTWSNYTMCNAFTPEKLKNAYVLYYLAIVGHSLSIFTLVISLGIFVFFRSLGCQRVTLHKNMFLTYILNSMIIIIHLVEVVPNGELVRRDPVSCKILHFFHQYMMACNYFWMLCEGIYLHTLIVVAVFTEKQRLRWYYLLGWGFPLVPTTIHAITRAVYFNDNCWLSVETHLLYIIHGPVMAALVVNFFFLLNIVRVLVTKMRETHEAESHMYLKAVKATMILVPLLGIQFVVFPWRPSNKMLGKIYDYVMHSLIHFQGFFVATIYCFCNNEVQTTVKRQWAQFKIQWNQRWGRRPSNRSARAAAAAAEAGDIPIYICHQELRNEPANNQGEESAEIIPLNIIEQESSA


What was measured:
[1] = molecular target: T1, human calcitonin receptor; assay: ratio of IC50 at hCTR over IC50 at hAmylin-R (SPA competition assays)
Protocol: The resulting pellet was resuspended, homogenized and centrifuged (20.000 rpm, 15 min) in a buffer containing 20 mM Na-HEPES and 0.1 mM EDTA (pH 7.4, buffer 2). The resulting pellet was resuspended in buffer 2 and protein concentration was measured (BCA protein Assay, Pierce). The homogenate was kept cold during the whole procedure. The membranes were kept at −80° C. until use. The assay was performed in a 384 well Optiplate (PerkinElmer) in a total volume of 40 ul. Membranes were mixed with SPA beads. Final concentration of membranes 35 ng/μL final and SPA beads was 0.05 mg/well. Test-compounds were dissolved in DMSO and further diluted in assay buffer (50 mM Hepes, pH 7.4, 1 mM CaCl2, 5 mM MgCl₂, 0.1% OA and 0.02% Tween20). […] The final mixture was incubated with shaking at 400 rpm for 120 min at 25° C. prior to centrifugation (1500 rpm, 10 min). Samples were analyzed on TopCounter™ (Packard). The IC₅₀ was calculated using (one site binding competition analysis) GraphPad Prism5 as a measure of receptor affinity.
Membranes were prepared in the following way; the cells were rinsed with PBS and incubated with Versene for approximately 5 min before harvesting. The cells were flushed with PBS and the cell-suspension was centrifuged for 5 min at 1000 rpm. Cells were homogenized (Ultrathurrax) in a buffer containing 20 mM Na-HEPES and 10 mM EDTA (pH 7.4) and centrifuged at 20.000 rpm for 15 min. The resulting pellet was resuspended, homogenized and centrifuged (20.000 rpm, 15 min) in a buffer containing 20 mM Na-HEPES and 0.1 mM EDTA (pH 7.4, buffer 2). The resulting pellet was resuspended in buffer 2 and protein concentration was measured (BCA protein Assay, Pierce). The homogenate was kept cold during the whole procedure. The membranes were kept at −80° C. until use. Assay was performed in a 384 well Optiplate (PerkinElmer) in a total volume of 40 ul. Membranes were mixed with SPA beads.

[2] = molecular target: T1, human calcitonin receptor; assay: SPA competition against 125I-calcitonin, membranes of BHK cells with human calcitonin receptor (Assay VII)
In short: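 BHK hCTR membranes 35 ng/μL + SPA beads 0.05 mg/well; buffer 50 mM Hepes pH 7.4, 1 mM CaCl2, 5 mM MgCl₂, 0.1% OA, 0.02% Tween20. 120 min, 25° C., shaking. Scintillation count; IC50 by one-site binding competition.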

Row | Binder | Ratio hCT/hAmylin binding [1] | IC50 [2] [nM]
1 | K([γGlu-C20 diacid])CNTATCATQRLAEFLRHSSPNFGAIPSSTNVGRETY-NH2 (disulfide 2-7; N-terminus assumed; SMILES CC[C@H](C)[C@H](NC(=O)[C@H](C)NC(=O)CNC(=O)[C@H](Cc1ccccc1)NC(=O)[C@H](CC(N)=O)NC(=O)[C@@H]1CCCN1C(=O)[C@H](CO)NC(=O)[C@H](CO)NC(=O)[C@H](Cc1c[nH]cn1)NC(=O)[C@H](CCCNC(=N)N)NC(=O)[C@H](CC(C)C)NC(=O)[C@H](Cc1ccccc1)NC(=O)[C@H](CCC(=O)O)NC(=O)[C@H](C)NC(=O)[C@H](CC(C)C)NC(=O)[C@H](CCCNC(=N)N)NC(=O)[C@H](CCC(N)=O)NC(=O)[C@@H](NC(=O)[C@H](C)NC(=O)[C@@H]1CSSC[C@H](NC(=O)[C@@H](N)CCCCNC(=O)CC[C@H](NC(=O)CCCCCCCCCCCCCCCCCCC(=O)O)C(=O)O)C(=O)N[C@@H](CC(N)=O)C(=O)N[C@@H]([C@@H](C)O)C(=O)N[C@@H](C)C(=O)N[C@@H]([C@@H](C)O)C(=O)N1)[C@@H](C)O)C(=O)N1CCC[C@H]1C(=O)N[C@@H](CO)C(=O)N[C@@H](CO)C(=O)N[C@H](C(=O)N[C@@H](CC(N)=O)C(=O)N[C@H](C(=O)NCC(=O)N[C@@H](CCCNC(=N)N)C(=O)N[C@@H](CCC(=O)O)C(=O)N[C@H](C(=O)N[C@@H](Cc1ccc(O)cc1)C(N)=O)[C@@H](C)O)C(C)C)[C@@H](C)O) | 28.5 | 6.62
2 | K([γGlu-C20 diacid])CNTATCATQRLAEFLRHSSPNFGAIPSSTNVGPHTY-NH2 (disulfide 2-7) | 21.2 | 3.8
3 | K([γGlu-C20 diacid])CNTATCATQRLAEFLRHSSPNFGAIPSSTNVGPRTY-NH2 (disulfide 2-7; N-terminus assumed; SMILES CC[C@H](C)[C@H](NC(=O)[C@H](C)NC(=O)CNC(=O)[C@H](Cc1ccccc1)NC(=O)[C@H](CC(N)=O)NC(=O)[C@@H]1CCCN1C(=O)[C@H](CO)NC(=O)[C@H](CO)NC(=O)[C@H](Cc1c[nH]cn1)NC(=O)[C@H](CCCNC(=N)N)NC(=O)[C@H](CC(C)C)NC(=O)[C@H](Cc1ccccc1)NC(=O)[C@H](CCC(=O)O)NC(=O)[C@H](C)NC(=O)[C@H](CC(C)C)NC(=O)[C@H](CCCNC(=N)N)NC(=O)[C@H](CCC(N)=O)NC(=O)[C@@H](NC(=O)[C@H](C)NC(=O)[C@@H]1CSSC[C@H](NC(=O)[C@@H](N)CCCCNC(=O)CC[C@H](NC(=O)CCCCCCCCCCCCCCCCCCC(=O)O)C(=O)O)C(=O)N[C@@H](CC(N)=O)C(=O)N[C@@H]([C@@H](C)O)C(=O)N[C@@H](C)C(=O)N[C@@H]([C@@H](C)O)C(=O)N1)[C@@H](C)O)C(=O)N1CCC[C@H]1C(=O)N[C@@H](CO)C(=O)N[C@@H](CO)C(=O)N[C@H](C(=O)N[C@@H](CC(N)=O)C(=O)N[C@H](C(=O)NCC(=O)N1CCC[C@H]1C(=O)N[C@@H](CCCNC(=N)N)C(=O)N[C@H](C(=O)N[C@@H](Cc1ccc(O)cc1)C(N)=O)[C@@H](C)O)C(C)C)[C@@H](C)O) | 38.6 | 6.3
4 | K([γGlu-C20 diacid])CNTATCATQRLAEFLRHSSPNFGAIPSSTNVGHETY-NH2 (disulfide 2-7; N-terminus assumed; SMILES CC[C@H](C)[C@H](NC(=O)[C@H](C)NC(=O)CNC(=O)[C@H](Cc1ccccc1)NC(=O)[C@H](CC(N)=O)NC(=O)[C@@H]1CCCN1C(=O)[C@H](CO)NC(=O)[C@H](CO)NC(=O)[C@H](Cc1c[nH]cn1)NC(=O)[C@H](CCCNC(=N)N)NC(=O)[C@H](CC(C)C)NC(=O)[C@H](Cc1ccccc1)NC(=O)[C@H](CCC(=O)O)NC(=O)[C@H](C)NC(=O)[C@H](CC(C)C)NC(=O)[C@H](CCCNC(=N)N)NC(=O)[C@H](CCC(N)=O)NC(=O)[C@@H](NC(=O)[C@H](C)NC(=O)[C@@H]1CSSC[C@H](NC(=O)[C@@H](N)CCCCNC(=O)CC[C@H](NC(=O)CCCCCCCCCCCCCCCCCCC(=O)O)C(=O)O)C(=O)N[C@@H](CC(N)=O)C(=O)N[C@@H]([C@@H](C)O)C(=O)N[C@@H](C)C(=O)N[C@@H]([C@@H](C)O)C(=O)N1)[C@@H](C)O)C(=O)N1CCC[C@H]1C(=O)N[C@@H](CO)C(=O)N[C@@H](CO)C(=O)N[C@H](C(=O)N[C@@H](CC(N)=O)C(=O)N[C@H](C(=O)NCC(=O)N[C@@H](Cc1c[nH]cn1)C(=O)N[C@@H](CCC(=O)O)C(=O)N[C@H](C(=O)N[C@@H](Cc1ccc(O)cc1)C(N)=O)[C@@H](C)O)C(C)C)[C@@H](C)O, also called compound 107) | 11.1 | 4.28

Further binders by falling IC50 [2], results first:

Row | Ratio hCT/hAmylin binding [1] | IC50 [2] [nM] | Binder
5 | 26.4 | 26.1 | K([γGlu-C20 diacid])CNTATCATQRLAEFLRHSSPNFGAIPSSTNVGSHTY-NH2 (disulfide 2-7; N-terminus assumed; SMILES CC[C@H](C)[C@H](NC(=O)[C@H](C)NC(=O)CNC(=O)[C@H](Cc1ccccc1)NC(=O)[C@H](CC(N)=O)NC(=O)[C@@H]1CCCN1C(=O)[C@H](CO)NC(=O)[C@H](CO)NC(=O)[C@H](Cc1c[nH]cn1)NC(=O)[C@H](CCCNC(=N)N)NC(=O)[C@H](CC(C)C)NC(=O)[C@H](Cc1ccccc1)NC(=O)[C@H](CCC(=O)O)NC(=O)[C@H](C)NC(=O)[C@H](CC(C)C)NC(=O)[C@H](CCCNC(=N)N)NC(=O)[C@H](CCC(N)=O)NC(=O)[C@@H](NC(=O)[C@H](C)NC(=O)[C@@H]1CSSC[C@H](NC(=O)[C@@H](N)CCCCNC(=O)CC[C@H](NC(=O)CCCCCCCCCCCCCCCCCCC(=O)O)C(=O)O)C(=O)N[C@@H](CC(N)=O)C(=O)N[C@@H]([C@@H](C)O)C(=O)N[C@@H](C)C(=O)N[C@@H]([C@@H](C)O)C(=O)N1)[C@@H](C)O)C(=O)N1CCC[C@H]1C(=O)N[C@@H](CO)C(=O)N[C@@H](CO)C(=O)N[C@H](C(=O)N[C@@H](CC(N)=O)C(=O)N[C@H](C(=O)NCC(=O)N[C@@H](CO)C(=O)N[C@@H](Cc1c[nH]cn1)C(=O)N[C@H](C(=O)N[C@@H](Cc1ccc(O)cc1)C(N)=O)[C@@H](C)O)C(C)C)[C@@H](C)O)
6 | 16.7 | 3.27 | K([γGlu-C20 diacid])CNTATCATQRLADFLRHSSPNFGAIPSSTNVGPETY-NH2 (disulfide 2-7; N-terminus assumed; SMILES CC[C@H](C)[C@H](NC(=O)[C@H](C)NC(=O)CNC(=O)[C@H](Cc1ccccc1)NC(=O)[C@H](CC(N)=O)NC(=O)[C@@H]1CCCN1C(=O)[C@H](CO)NC(=O)[C@H](CO)NC(=O)[C@H](Cc1c[nH]cn1)NC(=O)[C@H](CCCNC(=N)N)NC(=O)[C@H](CC(C)C)NC(=O)[C@H](Cc1ccccc1)NC(=O)[C@H](CC(=O)O)NC(=O)[C@H](C)NC(=O)[C@H](CC(C)C)NC(=O)[C@H](CCCNC(=N)N)NC(=O)[C@H](CCC(N)=O)NC(=O)[C@@H](NC(=O)[C@H](C)NC(=O)[C@@H]1CSSC[C@H](NC(=O)[C@@H](N)CCCCNC(=O)CC[C@H](NC(=O)CCCCCCCCCCCCCCCCCCC(=O)O)C(=O)O)C(=O)N[C@@H](CC(N)=O)C(=O)N[C@@H]([C@@H](C)O)C(=O)N[C@@H](C)C(=O)N[C@@H]([C@@H](C)O)C(=O)N1)[C@@H](C)O)C(=O)N1CCC[C@H]1C(=O)N[C@@H](CO)C(=O)N[C@@H](CO)C(=O)N[C@H](C(=O)N[C@@H](CC(N)=O)C(=O)N[C@H](C(=O)NCC(=O)N1CCC[C@H]1C(=O)N[C@@H](CCC(=O)O)C(=O)N[C@H](C(=O)N[C@@H](Cc1ccc(O)cc1)C(N)=O)[C@@H](C)O)C(C)C)[C@@H](C)O)
